Consider two molecules from paper PMC4454446.

The target of experiment [1] is chicken bestrophin-1 crystallization construct, amino acids 1-405 (Best1_(cryst)) (chicken (Gallus gallus)). Nature of the experiment: crystal structure.
Experiment [2] shares this target. The experiment can be described thus: SEC. (In general: In gel filtration, larger molecules generally elute earlier.)
Experiment [3] has the same target. Nature of the experiment: SEC. This is another data set of the same source.

Read-outs that look alike come from different tables or passages of the source.

The term stoichiometry N denotes the number of molecules, sites or subunits per partner or assembly. Broadly, the Kd is a measure of binding affinity in units of concentration. Higher therefore signals weaker binding.

In experiment [1], “chicken bestrophin-1 crystallization construct, amino acids 1-405 (Best1_(cryst)) (domain or fragment)” yielded a stoichiometry N of 5.

B1: Fab fragment of mouse monoclonal antibody 10D10 (Fab, V domains shown)
VH: QVQLQQSGPELVRPGASVKMSCKASGYTFTNYWMHWVKQRPGQALEWIGMIDPSKSETTLNQKFRGKATLNVDKSSNTAYMQLSSLTSEDSAVYYCAREVYYFDYWGQGTTLTVSS
VL: DIQMTQSPASLSASVGETVTITCRASENIYSYLTWYQQKQGKSPQLLVYNAKTLTEGVPSRFSGSGSGTQFSLKINSLQPEDFGGYFCQHHYGTPPTFGGGTKLEVK
In the case of B1, the equilibrium dissociation constant (Kd) in experiment [2] came out at 15 nM; in experiment [3], 350 nM.
